The results in this text go back to the supplement of paper PMC10567573.

± gives the standard deviation.

A short description of the data set: protein stability index of a GFP-peptide fusion (GPS, HEK-293T) (PSI 1-6); higher = more stable.
The mark [1] stands for this setting: treatment: DMSO, c terminus: a fixed tail appended.
[2] abbreviates: treatment: MLN4924 1 uM, 8 h, c terminus: a fixed tail appended.
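Further: 24-mer peptide tiles fused after GFP, lentivirally expressed, FACS-sorted into six equal bins by GFP/DsRed ratio, decoded by Illumina sequencing, PSI is the read-weighted mean bin number.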

Take LRATVERMGLMKANHVFFLLYLLH [FADS1]: the protein stability index runs as follows: under setting [1], 2.35 ± 0.37; under setting [2], 2 ± 0.18.
In the same order, the values of LRKKILKIRHGWEDVTKINKTEIC [STEAP1] are 2.29 ± 0.47 and 2.56 ± 0.48.
Taken in the same sequence, the figures for LRPSYTGLSSSSARFLSRSIPSLQ [CDC14A] were 3.04 ± 0.38 and 2.85 ± 0.29.
In the same order, the values of LRRTMQELEIELQSQLSMKAGLEN [KRT15] are 2.86 ± 0.22 and 3.13 ± 0.38.
For LRTRGRTRGWVQTLARMSRRTRGP [C6orf223], the protein stability index was found to be 3.6 ± 0.23 under setting [1] and 3.97 ± 0.27 under setting [2].
Taken in the same sequence, the figures for LRVEQKDFPAHRIVLAACSDYFCA [KLHL12] were 2 ± 0.44 and 2.07 ± 0.29.
In the same order, the values of LRVMETKPDKAVSIIECDMNVDFD [UFD1] are 3.57 ± 0.43 and 3.53 ± 0.28.
Taken in the same sequence, the figures for LSEGSSNEDEDLGPCEGPSKEDKD [SPANXN3] were 5.71 ± 0.31 and 5.37 ± 0.41.
LSEVLAQPQGALAPPNCESDSKTG [DNAAF3]: the protein stability index runs as follows: under setting [1], 5.37 ± 0.14; under setting [2], 5.52 ± 0.096.
In the same order, the values of LSHLLGDAGSPYLIGLISDRLRRN [SPNS1] are 2.18 ± 0.36 and 2.16 ± 0.39.
Taken in the same sequence, the figures for LSIYVGCDKYPHESQLPEEWENNR [CPXM2] were 2.98 ± 0.13 and 3.25 ± 0.4.
LSLLGAVGLAAVNSMPVDNRNHNE [CHGB]: the protein stability index worked out at 3.35 ± 0.2 under setting [1] and 3.54 ± 0.5 under setting [2].
In the same order, the values of LSLTSSASRLLTTALTSFCAKYTY [FANCE] are 2.72 ± 0.48 and 2.81 ± 0.67.
LSPMTASSFLSFAELFSYVLQDRA [FEM1A] showed a protein stability index under setting [1] of 2.47 ± 0.39 and a protein stability index under setting [2] of 2.26 ± 0.13.
In the same order, the values of LSRLQRVKFCLLGALLAPIRVLLA [LPCAT4] are 3.67 ± 0.42 and 3.58 ± 0.14.
With LSSEVLVGDLMSPFDQSGLGAEES [ATF4], the protein stability index by setting is: under setting [1], 5 ± 0.48; under setting [2], 4.84 ± 0.18.
Taken in the same sequence, the figures for LSTAASLGPSGLQNHGQHLILSRE [LCOR] were 3.99 ± 0.38 and 3.96 ± 0.16.
Take LSTADGKAFADPEVLRRLTSSVSC [ANKRD17]: the protein stability index under setting [1] came out at 3.55 ± 0.17 and the protein stability index under setting [2] came to 3.69 ± 0.29.
In the same order, the values of LTKAATSGVGIDGEVLSYLELAQF [RHOBTB1] are 2.44 ± 0.18 and 2.47 ± 0.43.
For the sequence LVEHYKKAPIFTSEHGEKLYLVRA [NCK2], the protein stability index worked out at 2.28 ± 0.21 under setting [1] and 2.42 ± 0.24 under setting [2].
Taken in the same sequence, the figures for LVNMGISVVSYTLKDIHDDQDYLH [FLOT1] were 2.11 ± 0.24 and 2.22 ± 0.31.
The sequence LVVFTASMEIYGSAVADKLDNSRS [CTDNEP1] had a protein stability index under setting [1] of 2.92 ± 0.74 and a protein stability index under setting [2] of 2.26 ± 0.37.
Turning to LWCANILGYAVSTFAMVKGYFFPT [DHCR7], the protein stability index came to 4.05 ± 0.23 under setting [1] and 3.83 ± 0.12 under setting [2].
In the same order, the values of LWFANAHLLSWFSPTIIFDNWIPL [DHCR7] are 2.92 ± 0.33 and 2.93 ± 0.16.
Take LWIKFFAAGELESMGFSARYNFTP [NETO1]: the protein stability index under setting [1] turned out to be 2.63 ± 0.85 and the protein stability index under setting [2] was determined as 2.58 ± 0.89.
Taken in the same sequence, the figures for LWLRPEVHTKEQILELLVLEQFLA [ZNF396] were 2.54 ± 0.5 and 2.73 ± 0.49.
Taken in the same sequence, the figures for LYFKDKIFNVAIPRFHMACPTFRV [FBXO3] were 2.98 ± 0.92 and 2.65 ± 0.68.
In the same order, the values of LYGALNPQYEFKEAAGSFTSSLAQ [IRX6] are 2.64 ± 0.17 and 2.55 ± 0.27.
The sequence LYPDLSCPEGLEELLSAPPPDLGA [SPSB2] came in with a protein stability index under setting [1] of 4.27 ± 0.14 and a protein stability index under setting [2] of 4.46 ± 0.12.
MAGTGLLALRTLPGPSWVRGSGPS [ALKBH7] registered a protein stability index under setting [1] of 2.68 ± 0.19 and a protein stability index under setting [2] of 2.88 ± 0.11.
In the same order, the values of MAKTLVFSKVKTSLGLDHCHSFIS [ACSBG2] are 2.18 ± 0.58 and 1.82 ± 0.52.
In the same order, the values of MALSNHYRSEDLLDVDTAAGGFQQ [FBXO3] are 4.03 ± 0.18 and 4.04 ± 0.13.
MCLSPDRKMEVEELSPLALGRFSL [CDC25B]: the protein stability index by setting is: under setting [1], 2.57 ± 0.19; under setting [2], 2.71 ± 0.24.
In the same order, the values of MCYGYGCGCGSFCRLGYGCGYEGC [KRTAP19-2] are 2.35 ± 0.23 and 2.43 ± 0.54.
Taken in the same sequence, the figures for MDDERYFNEMSAQGLRPRTVSSPI [CCDC6] were 4.28 ± 0.29 and 4.16 ± 0.14.
In the same order, the values of MDSRTVFGAWRCLLDATVAGGQTR [FCHSD1] are 1.92 ± 0.4 and 2.01 ± 0.33.
As to MECPEGQLPISSENDSTPTVSTSE [TAF7L], the protein stability index by setting is: under setting [1], 5.46 ± 0.12; under setting [2], 5.59 ± 0.25.
In the same order, the values of METNGSTEGSRSRSRSLDIQPSSE [SPAG8] are 5.54 ± 0.33 and 5.35 ± 0.064.
Taken in the same sequence, the figures for MHLNAEGMLSYCDRYSEGIKHVLQ [CRYL1] were 2.4 ± 0.29 and 2.32 ± 0.42.
On to MISAAQLLDELMGRDRNLAPDEKR [LUC7L3], for which the protein stability index runs as follows: under setting [1], 3.87 ± 0.19; under setting [2], 4.11 ± 0.21.
In the case of MITVPIGLYFTTKSYIFEGALGMS [VMA21], the protein stability index is 2.49 ± 0.7 under setting [1] and 2.89 ± 0.43 under setting [2].
Taken in the same sequence, the figures for MLKEEHQIILENQKNFGLYVQEKR [RAD54B] were 2.99 ± 0.24 and 3.62 ± 0.29.
In the case of MLLRKFAESKGTGREKPGPLDFEA [FCHO1], the protein stability index came out at 2.84 ± 0.034 under setting [1] and 2.86 ± 0.5 under setting [2].
Taken in the same sequence, the figures for MMEEIDRFQDPAAASISDGDCDAR [FAM219A] were 5.38 ± 0.16 and 5.42 ± 0.11.
On to MNALLEQKEQQERLREAAALGDIR [ANKRD40], for which the protein stability index is 4.66 ± 0.24 under setting [1] and 4.76 ± 0.18 under setting [2].
In the case of MPEYRGQGIGSKIIKKVAEVALDK [SAT2], the protein stability index was found to be 3.65 ± 0.35 under setting [1] and 4.05 ± 0.27 under setting [2].
Taken in the same sequence, the figures for MQPESGANGTVIAEFILLGLLEAP [OR3A1] were 2.18 ± 0.24 and 2.33 ± 0.42.
Taken in the same sequence, the figures for MSDLLSVFLHLLLLFKLVAPVTFR [CPN1] were 3.09 ± 0.26 and 3.33 ± 0.17.
In the same order, the values of MSFLSRQQPPPPRRAGAACTLRQK [WEE1] are 3.94 ± 0.2 and 3.88 ± 0.24.
On to MSMNNSKQLVSPAAALLSNTTCQT [PTGFR], for which the protein stability index was found to be 3.79 ± 0.21 under setting [1] and 3.99 ± 0.12 under setting [2].
MSSIICEGDTVSQELLDTVLVNLV [PDS5B]: the protein stability index under setting [1] was found to be 2.24 ± 0.22 and the protein stability index under setting [2] came to 2.14 ± 0.53.
For MTEWFMCAFSRTLPWSSVLRVWDM [TBC1D10A], the protein stability index under setting [1] came to 3.32 ± 0.42 and the protein stability index under setting [2] was 2.84 ± 0.23.
Consider MTSNPITWGQIKKTTQEAEKLLER [CDK11A], for which the protein stability index under setting [1] is 4.55 ± 0.24 and the protein stability index under setting [2] was 4.31 ± 0.25.
For the sequence MVFEVLGHHLLKWIIKSNYQGLPV [SRPK2], the protein stability index by setting is: under setting [1], 2.91 ± 0.33; under setting [2], 3.12 ± 0.27.
Taken in the same sequence, the figures for MVFIAGILLNGVSGWIFFYVPSSE [P2RY14] were 2.94 ± 0.34 and 2.84 ± 0.51.
Consider MVWNQNGKSPSITFEYTLLQPPHE [ADAMTSL2], for which the protein stability index reads like this: under setting [1], 2.23 ± 0.27; under setting [2], 2.64 ± 0.37.
In the same order, the values of NAININELFIEISRRIPSTDANLP [RAB22A] are 2.35 ± 0.18 and 2.18 ± 0.45.
Taken in the same sequence, the figures for NASTLRTINIKCHVHDPHGQVIWG [FBXO39] were 2.17 ± 0.18 and 2.21 ± 0.21.
Turning to NCPWPMSCPGSSYRTVVRPTYKVM [EMID1], the protein stability index is, setting by setting: under setting [1], 2.62 ± 0.26; under setting [2], 2.47 ± 0.4.
On to NDPSQSEVMGEPHLMVEYKLGLL [POMP], for which the protein stability index runs as follows: (treatment: DMSO, c terminus: native) 4.16 ± 0.22; (treatment: MLN4924 1 uM, 8 h, c terminus: native) 4.36 ± 0.21.
For the sequence NERKVAQLAEENERLKQEIERLTR [DDIT3], the protein stability index came out at 5.1 ± 0.37 under setting [1] and 5.18 ± 0.3 under setting [2].
In the same order, the values of NESHSIKAILKNISVLAFSVCFIF [SLC29A1] are 2.79 ± 0.61 and 2.54 ± 0.4.
In the same order, the values of NEVIADINCKGRSKSNLGWTPLHL [OSBPL1A] are 2.48 ± 0.38 and 2.76 ± 0.28.
Taken in the same sequence, the figures for NFKPRGYSECIVTVGGEERVSRKP [GAN] were 4.14 ± 0.28 and 4.32 ± 0.39.
In the case of NGHDCWSLISLSNNTGKNLELKFV [TENT5D], the protein stability index under setting [1] was 2.51 ± 0.49 and the protein stability index under setting [2] turned out to be 2.61 ± 1.
In the case of NGINLFDTAEVYAAGKAEVVLGNI [KCNAB2], the protein stability index under setting [1] came to 2.89 ± 0.3 and the protein stability index under setting [2] is 3 ± 0.3.
In the same order, the values of NGQLMAVGGFDGTTYLKTIEVFDP [KLHL20] are 2.93 ± 0.072 and 2.91 ± 0.45.
Taken in the same sequence, the figures for NGSDPRSFPLWYEEALKDEEERAQ [MAGEA10] were 5.34 ± 0.36 and 5.42 ± 0.2.
On to NHILECEFYLLELMDCCLIVYHPY [CCNC], for which the protein stability index reads like this: under setting [1], 3.12 ± 1; under setting [2], 2.78 ± 0.95.
Taken in the same sequence, the figures for NISDLPFLAENSAFPKMALQAKQD [LCOR] were 4.42 ± 0.2 and 4.39 ± 0.2.
On to NIVFGTGPRVGEALVSHPEVPLIS [ALDH8A1], for which the protein stability index is, setting by setting: under setting [1], 2.9 ± 0.21; under setting [2], 2.83 ± 0.27.
With NIWVCYASYVVFRIIYMLLITIAT [SLC19A2], the protein stability index was 3.41 ± 0.35 under setting [1] and 3.14 ± 0.88 under setting [2].
